Where “and” joins values, the source holds several entries; their conditions need not be identical. Equal entries are not always repeated.
System: Bacillus subtilis DB104 (SP-AmyQ fusion secretion)
Test: AmyQ secretion efficiency, weighted average sort bin (1 = best secretion, 10 = worst) (bin number (weighted average, 1-10)); higher = lower secretion efficiency
Summary of the method: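 B. subtilis DB104 library expressing mature AmyQ fused to designed signal peptides (amyE-integrated) was encapsulated at about 0.3 cells per ~65 nL alginate bead with fluorescein-starch, grown about 13 h at room temperature and nile red stained. Occupied beads were sorted by large-particle flow cytometry into 10 equally populated bins by green/red fluorescence ratio, and each bin's amplicons were Illumina-sequenced. Secretion score is the read-frequency-weighted average bin number, normalised to beads per bin, excluding low-abundance sequences.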

Compared with MKRKSCKLVVSVTLFFSFLTIGPLAHAQNS, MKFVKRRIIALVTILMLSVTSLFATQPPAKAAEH is higher in AmyQ secretion efficiency: 1.46 for the first, 2.78 for the second.

Going from MKKWIYVVLVLSIAGIGGFSYHAASS to MKSCKQYKRCQYSSILLLIPSVSFAADS, the AmyQ secretion efficiency rises from 7.41 to 7.62.

Going from MTVPKTMLLSTAAGLLLSLTATSVSAHYV to “MKKTSSFNFSSTAFLVFLSVVLVTTVFLVKQQESVAQAKQL”, the AmyQ secretion efficiency falls from 6.58 to 2.65.

First: MFMMSTNNFKRFIAAFLVLALMISLVPADVLAKST
Second: MKSKGSIMACKRLFSFTITTFINTETISAFSN
The AmyQ secretion efficiency of the first is lower: 2.59 for the first, 6.73 for the second.

Going from MRSKKLWISLLFALTLIFTMAFSNMSCQAAGK to MGMKKKLSLGVASAAGGTWAAFN, the AmyQ secretion efficiency rises from 2.77 to 8.23.

Going from MKSKGSIMACLILFSFTITTFINTETISTFSN to MKRITINIRRKKIAAAVISLTGTAEAAEK, the AmyQ secretion efficiency falls from 7.54 to 6.82.

Compared with MFNRLFRVCFLAALIMAFTLPNSVYFQKP, MLCVMMLLFSAIASFPVSAQRKDQ is lower in AmyQ secretion efficiency: 7.24 for the first, 6.75 for the second.

Going from MLTKRLLTIYIMLLGLIRRKPGAAQAEEK to MKVPKTMLLSTAAGLLLSLTATSVSSHYV, the AmyQ secretion efficiency falls from 7.69 to 7.63.

Going from MGGSIILLLAVIIAAAAAGVAFYV to MKKAKRKRRKAAVGLFTFGGVQQASAKEL, the AmyQ secretion efficiency rises from 7.67 to 8.05.

Compared with MKKQIITATTAVVLGSTLFAKKASAQSI, MLTKRLLTIYIMLLGLIAWFPGAAQAKRK is lower in AmyQ secretion efficiency: 6.18 for the first, 6.07 for the second.

Going from MRKKTKNRLISSVLSTVVISSLLFPGAAGASEE to MKSKGSIMACLILFSFTITTFINTETISAFSD, the AmyQ secretion efficiency rises from 2.7 to 6.02.

First: MKNMSCKLVVSVTLFFSFLTIGPLAHFQNS
Second: MNKKYSSKQGCRIFTSALFPTFSSVTAAQG
The AmyQ secretion efficiency of the first is higher: 5.82 for the first, 4.96 for the second.

Compared with MKRKKMSGLLLVAVGFSFTQVMVHAGET, MGGSILIQVMIMFTLLLTMAFSADAADS is lower in AmyQ secretion efficiency: 6.25 for the first, 5.96 for the second.

First: MKRLFMKSSKRLFAVVFVFAVKGAPAKAETH
Second: MRGKSAVLLSLIMLIAGFLISFDFQM
The AmyQ secretion efficiency of the first is higher: 7.81 for the first, 6.6 for the second.

Going from MKRLLVSLRVWMVFLMNWVTPDRKTAAADED to MLKRTSFVSSQGQGSRTLLSILLPSGQAHAQSA, the AmyQ secretion efficiency rises from 6.67 to 7.6.

First: MMKVLMAFIICLSLILSVLAAPPSGAKAESV
Second: MMGIMIFLTSFMLLAMTGQTALAKDV
The AmyQ secretion efficiency of the first is higher: 5 for the first, 3.75 for the second.

First: MKKRLIAPMLLSAASLAFFAMSGSGQAAAY
Second: MFKKHTISLLIIFLLASAVLAKPEEAHTV
The AmyQ secretion efficiency of the first is higher: 5.16 for the first, 4.88 for the second.

Going from MKKWMITIAMLILAGIALFVFISPLKGHKT to MKLSVKIAGVLTVAAAAMTAKMYATSKGN, the AmyQ secretion efficiency rises from 6.29 to 6.78.

Compared with MKKWRKRLIIAVSLAIAIVLFMYTKGEAKAAGM, MSSKAWFLPLVCVLLISGWLAPAASASAQTT is lower in AmyQ secretion efficiency: 3.1 for the first, 1.72 for the second.

Going from MLCKKMLLFSAIASFPVSAQAKDQ to MKKTTNVLMAFIICLSLILSVLAAPPSGAKAESV, the AmyQ secretion efficiency falls from 4.84 to 2.36.

Going from MSTFLIGAGVAAVILSGWFIADHQTHSQEM to MKKQIITATTAVVLGSTLFAGAASAKRK, the AmyQ secretion efficiency falls from 6.2 to 2.25.

Compared with MLKKKWMVGLLAGCLAAGGFSYNAFDTEN, MFKKHTISLLIIFLLASAVLAKPIEAHTK is lower in AmyQ secretion efficiency: 6.19 for the first, 2.17 for the second.

First: MKMKSGMEQAVSVLLLLSRLPVQASLTSH
Second: MRPVFPLILSAVLFLSCFFFGARQTEASASKR
The AmyQ secretion efficiency of the first is higher: 7.82 for the first, 1.8 for the second.

First: MRFTKVVGFLSVLGLAAVFPLTAQGEKA
Second: MGTTIIILLLAVIIAAAAAGVAFYV
The AmyQ secretion efficiency of the first is lower: 2.12 for the first, 7.47 for the second.

Going from MKKRLIAPMLLSAASLAFFAMSGSPQAAAY to MKNLTKTSLLLAGLCTAAQMVFVTHASAEES, the AmyQ secretion efficiency falls from 5.7 to 3.46.

Going from MKSKWMSGLLLVAVGFSFTQVMHHAGET to MKKIVIILFMFILVMSSGFSQFQPSTVFAADK, the AmyQ secretion efficiency falls from 6.66 to 3.08.

Going from MRNLTKTSLLLAGLCTAARRKKKKHASAEES to MMIKQCVICLSLLVFGTEEDAHAEET, the AmyQ secretion efficiency falls from 7.09 to 3.44.

Going from MKLKKRVSMYTQALTMCGGLFVTPAKAVKT to MNLRKILLSSALSLGMLVSAAPVLHTSS, the AmyQ secretion efficiency rises from 5.95 to 6.17.

Going from MKRIRIPMTLALGAALTIAPLSFASKEEN to MFMMLGSLLITAGILVFFAVVVKDVFAAGL, the AmyQ secretion efficiency falls from 6.64 to 6.51.

Going from MRHKIITFILAVVVIIIIGNMIGGGGGQEATSK to MGSGTIWTIILGALLVCCIAVAYTLTKSQAGASSS, the AmyQ secretion efficiency rises from 6.41 to 7.61.

Compared with MKIRKLIFNMFLILLSSALSFGMLISAVPALAAGT, MTKLKMLSMLTVMIASLFIFSSQMLAVQY is higher in AmyQ secretion efficiency: 3.62 for the first, 4.6 for the second.

Compared with MLCVMMLLFSAIASFPVSAQDKDQ, MKKAFLVFLSVVLVTTVFLSKQQESVAQAKQL is lower in AmyQ secretion efficiency: 6.19 for the first, 1.98 for the second.

Going from MKKKRKKIAGVLTVAAAAMTAKMYATAKGN to MRKRKVVGFLSVLGLAAVFPLTAQAEKA, the AmyQ secretion efficiency falls from 7.67 to 3.02.

Going from MKQGKFVFLILLLMLTLVVAPKEKAEAASS to MKWMCSICCAAVLLAGGAAQCEAV, the AmyQ secretion efficiency rises from 1.74 to 3.23.

First: MLKGIIRFLLVSFVLFFALSTGITGVQAAPA
Second: MKKAFILSAAAAVGLFTFGGVQQVSAKEL
The AmyQ secretion efficiency of the first is lower: 2.22 for the first, 3.11 for the second.

Compared with MRKRKKLSVAVAASFMSLSISLPGVQAAEG, MFNRLFRVCFLAALIMAFVLTFFVYAQKP is higher in AmyQ secretion efficiency: 1.73 for the first, 5.95 for the second.

First: MLCVMMLLFSSFPVSAQAKDQ
Second: MSRITINIITMFIAAAVISLTGTAEAAEK
The AmyQ secretion efficiency of the first is higher: 5.51 for the first, 2.45 for the second.

Compared with MLCVMMLLFMAIASFPVSAQAKDQ, “MGLGKKLSVAVAASFMSLSISLPGAVGPGFPTFPSVQAAEG” is lower in AmyQ secretion efficiency: 5.48 for the first, 1.21 for the second.

Compared with MKKIMIFLTSFMLLAMTGQTALAKDV, MKKRFSLIMMTGLLFGLTSPAFAADE is higher in AmyQ secretion efficiency: 3.4 for the first, 3.46 for the second.

First: MKWMCSICCAAVLLAGGAAQAAAD
Second: MRKKRLLAGALTATVLFGTCAVDVPGIISPKTAEAASQ
The AmyQ secretion efficiency of the first is higher: 4.17 for the first, 1.23 for the second.

Compared with MKKRLIAPMLLSAASLAFFAQEGSAQAAAY, MKKWMITIAMLILAGIALFVFISPNKSHKT is higher in AmyQ secretion efficiency: 2.53 for the first, 5.8 for the second.

First: MRKKRVKRCVMAASLTLGSLLPAGYASAKED
Second: MKSKGSIMACRRKRRRTITTFINTETISAFSN
The AmyQ secretion efficiency of the first is lower: 3.34 for the first, 6.8 for the second.

First: MKKWIYVVLVLSIAGIGGFSVHAASR
Second: MFKKHTISLLIIFLLASAVLAKPTEAHTV
The AmyQ secretion efficiency of the first is higher: 5.28 for the first, 2.68 for the second.

First: MLTKRQLTIYIMLLGLIAWFPGAAQAEEK
Second: MTKLKMLSMLTVMIASLFIFSSQALLVQY
The AmyQ secretion efficiency of the first is lower: 2.9 for the first, 6.07 for the second.

First: MKLKSKLFVICLAAATAAGVSANAEALDF
Second: MKKKIVAGLAVSAGSSMAAAPAEAKTI
The AmyQ secretion efficiency of the first is lower: 5.89 for the first, 7.16 for the second.

Going from MKSKGSIMACLILFSFTITEDEEEETISAFSN to MLCKRRKRKSAIASFPVSAQAKDQ, the AmyQ secretion efficiency rises from 6.65 to 6.78.

Going from MKLAKRVSALTPSTTLAIATAKAKEL to MKLKSKLLLSCLALSTVFVATTICNAPTH, the AmyQ secretion efficiency falls from 7.06 to 5.85.

In the case of MRIFKKAVFVIMISFLIATVNVNTAHAAID, the AmyQ secretion efficiency is reported as 3.53 and 3.56 and 3.38.
